Patent US20220251204A1 (AstraZeneca / MedImmune, published 2022)
Numbering of substitutions follows the chain as printed.

B1: hOX40-Fc (human recombinant protein, R&D Systems) (Fc fusion)
chain: LHCVGDTYPSNDRCCHECRPGNGMVSRCSRSQNTVCRPCGPGFYNDVVSSKPCKPCTWCNLRSGSERKQLCTATQDTVCRCRAGTQPLDSYKPGVDCAPCPPGHFSPGDNQACKPWTNCTLAGKHTLQPASNSSDAICEDRDPPATQPQETQGPPARPITVQPTEAWPRTSQGPSTRPVEVPGGRAVA
notes: also called human OX40-Fc; not shown: Fc part of the bought fusion
B2: Anti-CTLA-4 IgG (antibody, V domains shown)
VH: QVQLVESGGGVVQPGRSLRLSCAASGFTFSSYGMHWVRQAPGKGLEWVAVIWYDGSNKYYADSVKGRFTISRDNSKNTLYLQMNSLRAEDTAVYYCARDPRGATLYYYYYGMDVWGQGTTVTVSS
VL: DIQMTQSPSSLSASVGDRVTITCRASQSINSYLDWYQQKPGKAPKLLIYAASSLQSGVPSRFSGSGSGTDFTLTISSLQPEDFATYYCQQYYSTPFTFGPGTKVEIK
notes: also called tremelimumab; MEDI1123
B3: OX40(SLR)/PD-L1 BiS5 (bispecific antibody, human IgG1, kappa)
heavy: QVQLQESGPGLVKPSQTLSLTCAVYGGSFSSGYWNWIRKHPGKGLEYIGYISYNAITYHNPSLKSRITINRDTSKNQYSLQLNSVTPEDTAVYYCARYKYDYEGGHAMDYWGQGTLVTVSSASTKGPSVFPLAPSSKSTSGGTAALGCLVKDYFPEPVTVSWNSGALTSGVHTFPAVLQSSGLYSLSSVVTVPSSSLGTQTYICNVNHKPSNTKVDKRVEPKSCDKTHTCPPCPAPELLGGPSVFLFPPKPKDTLMISRTPEVTCVVVDVSHEDPEVKFNWYVDGVEVHNAKTKPREEQYNSTYRVVSVLTVLHQDWLNGKEYKCKVSNKALPAPIEKTISKAKGQPREPQVYTLPPSREEMTKNQVSLTCLVKGFYPSDIAVEWESNGGGGSGGGGSEVQLVESGGGLVQPGGSLRLSCAASGFTFSRYWMSWVRQAPGKCLEWVANIKQDGSEKYYVDSVKGRFTISRDNAKNSLYLQMNSLRAEDTAVYYCAREGGWFGELAFDYWGQGTLVTVSSGGGGSGGGGSGGGGSGGGGSEIVLTQSPGTLSLSPGERATLSCRASQRVSSSYLAWYQQKPGQAPRLLIYDASSRATGIPDRFSGSGSGTDFTLTISRLEPEDFAVYYCQQYGSLPWTFGCGTKVEIKGGGGSGGGGSGQPENNYKTTPPVLDSDGSFFLYSKLTVDKSRWQQGNVFSCSVMHEALHAHYTQKSLSLSPGK
light: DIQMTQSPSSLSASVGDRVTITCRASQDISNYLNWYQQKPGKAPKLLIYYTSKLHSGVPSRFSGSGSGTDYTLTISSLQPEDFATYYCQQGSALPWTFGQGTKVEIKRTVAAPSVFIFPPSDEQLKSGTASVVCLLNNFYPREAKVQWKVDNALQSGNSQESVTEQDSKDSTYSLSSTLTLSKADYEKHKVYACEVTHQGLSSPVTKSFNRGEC
notes: also called BiS5 OX40Ab/PD-L1; PD-L1/OX40 BiS5

What was measured:
[1] = target: T1, His-tagged PD-L1-Fc (human recombinant protein, R&D Systems) (human, UniProt Q9NZQ7 19-238); assay: Octet: PDL1-HiS-Fc loaded anti-HiS sensor, 5ug/mL rhOx40-Fc association
T1 construct: also called PD-L1-His

[2] = target: T2, human PD-1 expressed on cells (human, UniProt Q15116 25-288); assay: flow cytometry receptor occupancy, CHO cells expressing PD-1:CTLA-4 (10:1); free PD-1 detected with labeled anti-PD-1 mAb
T2 construct: also called CHO cells overexpressing human PD1

[3] = target: T3, human CTLA-4 expressed on cells (human, UniProt P16410 36-223); assay: flow cytometry receptor occupancy, CHO cells expressing PD-1:CTLA-4 (40:1), combination of the anti-PD-1 and anti-CTLA-4 mAbs; free CTLA-4 detected with labeled anti-CTLA-4 mAb; label stands beside the dark-diamond curve, which crosses 50 % at about 2.5 nM
T3 construct: also called CTLA-4 reporter cells
T3 sequence: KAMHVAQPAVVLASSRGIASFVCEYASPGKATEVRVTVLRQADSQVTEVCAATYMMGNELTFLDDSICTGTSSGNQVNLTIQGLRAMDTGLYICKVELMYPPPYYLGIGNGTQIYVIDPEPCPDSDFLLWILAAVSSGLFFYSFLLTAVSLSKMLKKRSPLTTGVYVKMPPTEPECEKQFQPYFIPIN

[4] = target: T3, human CTLA-4 expressed on cells; assay: flow cytometry receptor occupancy, CHO cells expressing PD-1:CTLA-4 (40:1); free CTLA-4 detected with labeled anti-CTLA-4 mAb
[5] = target: T3, human CTLA-4 expressed on cells; assay: flow cytometry receptor occupancy, CHO cells expressing PD-1:CTLA-4 (10:1); free CTLA-4 detected with labeled anti-CTLA-4 mAb
[6] = target: T4, human CTLA-4 antigen (soluble) (human, UniProt P16410 36-161); assay: SPR, BIAcore T200; antibody captured on mouse anti-huIgG-Fab, antigen injected
T4 construct: also called hu CTLA4; soluble CTLA-4 antigen
T4 sequence: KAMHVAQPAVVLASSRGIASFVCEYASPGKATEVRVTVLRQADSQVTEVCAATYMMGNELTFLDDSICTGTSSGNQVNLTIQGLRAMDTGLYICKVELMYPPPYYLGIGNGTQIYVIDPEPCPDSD

cynomolgus CTLA-4 = target: T5, cynomolgus CTLA-4 (cynomolgus, UniProt G7PL88 36-161); assay: as above
T5 construct: also called cyno CTLA4
T5 sequence: T4 sequence with S14N, I18T, L106M

[7] = target: B1; assay: Octet: antibody held on PDL1-HiS-Fc loaded anti-HiS sensor, then 5ug/mL rhOx40-Fc association
[8] = target: T6, CD32a expressed on HEK cells (UniProt P12318 34-317); assay: flow cytometry (HyperCyt, FL4-H median) on HEK CD32a cells, concentration not given
T6 construct: whole, on cells; also called HEK CD32a cells
T6 sequence (looked up): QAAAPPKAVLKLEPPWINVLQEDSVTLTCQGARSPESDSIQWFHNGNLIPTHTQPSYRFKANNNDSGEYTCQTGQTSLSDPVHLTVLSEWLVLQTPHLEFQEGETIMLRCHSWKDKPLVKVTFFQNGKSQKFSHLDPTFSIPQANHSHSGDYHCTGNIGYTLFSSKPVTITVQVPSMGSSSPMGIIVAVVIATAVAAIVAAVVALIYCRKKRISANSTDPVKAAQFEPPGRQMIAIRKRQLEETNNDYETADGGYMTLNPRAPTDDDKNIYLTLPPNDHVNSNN

[9] = target: T7, human OX40 expressed on cells (human, UniProt P43489 29-277); assay: flow cytometry (HyperCyt, FL4-H median) on Jurkat OX40 cells, one condition, concentration not given
T7 construct: also called CHO cells expressing human OX40; Jurkat OX40 reporter cells
T7 sequence: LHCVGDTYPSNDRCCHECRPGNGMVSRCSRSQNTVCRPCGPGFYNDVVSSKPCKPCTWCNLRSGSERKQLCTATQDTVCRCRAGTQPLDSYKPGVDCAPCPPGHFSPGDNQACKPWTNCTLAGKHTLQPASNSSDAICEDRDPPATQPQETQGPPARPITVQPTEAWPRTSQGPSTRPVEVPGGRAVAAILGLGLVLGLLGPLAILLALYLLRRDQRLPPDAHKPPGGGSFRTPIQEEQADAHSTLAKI

T2 sequence (Q15116 25-288 limits assumed): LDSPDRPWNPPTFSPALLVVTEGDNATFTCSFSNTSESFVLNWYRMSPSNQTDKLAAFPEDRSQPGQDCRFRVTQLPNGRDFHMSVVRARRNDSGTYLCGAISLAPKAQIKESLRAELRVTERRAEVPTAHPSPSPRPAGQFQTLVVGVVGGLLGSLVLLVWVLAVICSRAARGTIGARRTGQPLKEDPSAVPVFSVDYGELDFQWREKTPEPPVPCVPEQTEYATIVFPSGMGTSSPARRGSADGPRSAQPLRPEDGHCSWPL
T1 sequence (Q9NZQ7 19-238 limits assumed): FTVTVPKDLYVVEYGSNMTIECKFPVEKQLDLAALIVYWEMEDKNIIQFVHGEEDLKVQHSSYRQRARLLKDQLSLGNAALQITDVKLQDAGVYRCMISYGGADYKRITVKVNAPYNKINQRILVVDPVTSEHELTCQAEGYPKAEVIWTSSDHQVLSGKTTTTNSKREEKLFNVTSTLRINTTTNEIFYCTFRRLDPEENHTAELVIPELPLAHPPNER

## B1
[1]
  binding result: no binding (tested: 5ug/mL)

## B2
[2]
  binding result: no binding (tested: about 200 nM)
[3]
  IC50: 2.4 nM
[4]
  IC50: 4.4 nM
[5]
  IC50: 5 nM
[6]
  Kd: 0.48 nM
  koff: 0.000304 s⁻¹
  kon: 633000 M⁻¹ s⁻¹
Cynomolgus CTLA-4
  Kd: 0.59 nM
  koff: 0.000674 s⁻¹
  kon: 1.15e+06 M⁻¹ s⁻¹

## B3
[7]
  binding result: binds
[8]
  binding result: binds
[9]
  binding result: binds
